One may read the Kd as the equilibrium constant for the complex coming apart. Higher therefore signals weaker binding.

The values below come from doi:10.1101/2021.01.08.425994 (bioRxiv, 2021).

For the experiment, the target named is T1, His-tagged mouse CRY2 D325H PHR domain (residues 1-512) (mouse, UniProt Q9R194 1-512, D325H).
T1 sequence (looked up): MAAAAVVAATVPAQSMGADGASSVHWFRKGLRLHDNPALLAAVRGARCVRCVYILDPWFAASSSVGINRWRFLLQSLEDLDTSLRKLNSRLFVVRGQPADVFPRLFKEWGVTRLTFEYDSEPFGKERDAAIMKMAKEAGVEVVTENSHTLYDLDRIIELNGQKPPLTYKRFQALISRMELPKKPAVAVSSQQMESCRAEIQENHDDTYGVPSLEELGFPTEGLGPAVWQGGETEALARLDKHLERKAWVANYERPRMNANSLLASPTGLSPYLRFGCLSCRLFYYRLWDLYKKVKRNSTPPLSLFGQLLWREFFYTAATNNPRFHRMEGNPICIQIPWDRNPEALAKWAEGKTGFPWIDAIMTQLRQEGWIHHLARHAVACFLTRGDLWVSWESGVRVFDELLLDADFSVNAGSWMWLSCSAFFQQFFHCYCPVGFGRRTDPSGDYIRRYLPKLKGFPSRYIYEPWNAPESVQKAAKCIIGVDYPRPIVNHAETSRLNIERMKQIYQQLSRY
The experiment is described as follows: BLI. (In general: Biolayer interferometry detects binding as a change in optical thickness at a sensor tip.)

B1: CLOCK:BMAL1 PAS domain core (PAS-AB domain heterodimer), biotinylated (complex)
chain 1: ASEIRQDWKPTFLSNEEFTQLMLEALDGFFLAIMTDGSIIYVSESVTSLLEHLPSDLVDQSIFNFIPEGEHSEVYKILSTHLLESDSLTPEYLKSKNQLEFCCHMLRGTIDPKEPSTYEYVRFIGNFKSLTSVSTSTHNGFEGTIQRTHRPSYEDRVCFVATVRLATPQFIKEMCTVEEPNEEFTSRHSLEWKFLFLDHRAPPIIGYLPFEVLGTSGYDYYHVDDLENLAKCHEHLMQYGKGKSCYYRFLTKGQQWIWLQTHYYITYHQWNSRPEFIVCTHTVVSYAEVRAERRRELGIEESL
chain 2: not shown
In turn, B1 had a Kd of 1800 nM.
